Reference: patent US20230192890A1

What was measured:
[1] = target: full-length recombinant mouse PAD4 (mouse) (UniProt Q9Z183); assay: ELISA, mouse PAD4 on plate, antibody 0.0039063 ug/mL
[2] = target: full-length recombinant mouse PAD4 (mouse) (UniProt Q9Z183); assay: ELISA, mouse PAD4 on plate, antibody 0.25 ug/mL
[3] = target: full-length recombinant mouse PAD4 (mouse) (UniProt Q9Z183); assay: ELISA, mouse PAD4 on plate, antibody 1 ug/mL
[4] = target: full-length recombinant mouse PAD4 (mouse) (UniProt Q9Z183); assay: ELISA, mouse PAD4 on plate, antibody 6.104E-05 ug/mL
[5] = target: full-length recombinant mouse PAD4 (mouse) (UniProt Q9Z183); assay: ELISA, mouse PAD4 on plate, antibody 0.0009766 ug/mL
[6] = target: full-length recombinant mouse PAD4 (mouse) (UniProt Q9Z183); assay: ELISA, mouse PAD4 on plate, antibody 0.0625 ug/mL
[7] = target: full-length recombinant mouse PAD4 (mouse) (UniProt Q9Z183); assay: ELISA, mouse PAD4 on plate, antibody 0.0002441 ug/mL
[8] = target: full-length recombinant mouse PAD4 (mouse) (UniProt Q9Z183); assay: ELISA, mouse PAD4 on plate, antibody 0.015625 ug/mL
[9] = target: T1, Ala mutant SEQ ID NO: 29 (human); assay: ELISA, peptide on plate (10 ug/mL)
T1 sequence (peptide): EEAMDDQWMQDEMEIGY

[10] = target: T2, Ala mutant SEQ ID NO: 43 (human); assay: ELISA, peptide on plate (10 ug/mL)
T2 sequence (peptide): EENMDDQWMQDEMEIGA

[11] = target: T3, Ala mutant having 3-amino acid substitution, SEQ ID NO: 47 (human); assay: ELISA, peptide on plate (10 ug/mL)
T3 sequence (peptide): EENMDDQWMAAAMEIGY

[12] = target: T4, Ala mutant SEQ ID NO: 27 (human); assay: ELISA, peptide on plate (10 ug/mL)
T4 sequence (peptide): AENMDDQWMQDEMEIGY

[13] = target: T5, Ala mutant SEQ ID NO: 36 (human); assay: ELISA, peptide on plate (10 ug/mL)
T5 sequence (peptide): EENMDDQWMADEMEIGY

[14] = target: T6, Ala mutant SEQ ID NO: 39 (human); assay: ELISA, peptide on plate (10 ug/mL)
T6 sequence (peptide): EENMDDQWMQDEAEIGY

[15] = target: T7, Ala mutant SEQ ID NO: 38 (human); assay: ELISA, peptide on plate (10 ug/mL)
T7 sequence (peptide): EENMDDQWMQDAMEIGY

[16] = target: T8, Ala mutant SEQ ID NO: 30 (human); assay: ELISA, peptide on plate (10 ug/mL)
T8 sequence (peptide): EENADDQWMQDEMEIGY

[17] = target: Ala mutant SEQ ID NO: 35 (human); assay: ELISA, peptide on plate (10 ug/mL)
[18] = target: T9, Ala mutant SEQ ID NO: 31 (human); assay: ELISA, peptide on plate (10 ug/mL)
T9 sequence (peptide): EENMADQWMQDEMEIGY

[19] = target: T10, Ala mutant having 3-amino acid substitution, SEQ ID NO: 48 (human); assay: ELISA, peptide on plate (10 ug/mL)
T10 sequence (peptide): EENMDDQWMQDEAAAGY

[20] = target: T11, Ala mutant SEQ ID NO: 37 (human); assay: ELISA, peptide on plate (10 ug/mL)
T11 sequence (peptide): EENMDDQWMQAEMEIGY

[21] = target: T12, Ala mutant SEQ ID NO: 42 (human); assay: ELISA, peptide on plate (10 ug/mL)
T12 sequence (peptide): EENMDDQWMQDEMEIAY

[22] = target: T13, Ala mutant SEQ ID NO: 40 (human); assay: ELISA, peptide on plate (10 ug/mL)
T13 sequence (peptide): EENMDDQWMQDEMAIGY

[23] = target: T14, TA0096 (peptide antigen corresponding to positions 340 to 356 of PAD4) (human); assay: ELISA, peptide on plate (10 ug/mL)
T14 sequence (peptide): EENMDDQWMQDEMEIGY

[24] = target: T15, Ala mutant SEQ ID NO: 32 (human); assay: ELISA, peptide on plate (10 ug/mL)
T15 sequence (peptide): EENMDAQWMQDEMEIGY

[25] = target: Ala mutant SEQ ID NO: 34 (human); assay: ELISA, peptide on plate (10 ug/mL)
[26] = target: T16, Ala mutant SEQ ID NO: 33 (human); assay: ELISA, peptide on plate (10 ug/mL)
T16 sequence (peptide): EENMDDAWMQDEMEIGY

[27] = target: T17, Ala mutant having 3-amino acid substitution, SEQ ID NO: 46 (human); assay: ELISA, peptide on plate (10 ug/mL)
T17 sequence (peptide): EENMDDAAAQDEMEIGY

[28] = target: T18, Ala mutant having 3-amino acid substitution, SEQ ID NO: 44 (human); assay: ELISA, peptide on plate (10 ug/mL)
T18 sequence (peptide): AAAMDDQWMQDEMEIGY

[29] = target: T19, Ala mutant SEQ ID NO: 41 (human); assay: ELISA, peptide on plate (10 ug/mL)
T19 sequence (peptide): EENMDDQWMQDEMEAGY

[30] = target: T20, Ala mutant SEQ ID NO: 28 (human); assay: ELISA, peptide on plate (10 ug/mL)
T20 sequence (peptide): EANMDDQWMQDEMEIGY

[31] = target: T21, Ala mutant having 3-amino acid substitution, SEQ ID NO: 49 (human); assay: ELISA, peptide on plate (10 ug/mL)
T21 sequence (peptide): EENMDDQWMQDEMEIAA

full-length recombinant mouse PAD4 (mouse), sequence (Q9Z183 whole entry): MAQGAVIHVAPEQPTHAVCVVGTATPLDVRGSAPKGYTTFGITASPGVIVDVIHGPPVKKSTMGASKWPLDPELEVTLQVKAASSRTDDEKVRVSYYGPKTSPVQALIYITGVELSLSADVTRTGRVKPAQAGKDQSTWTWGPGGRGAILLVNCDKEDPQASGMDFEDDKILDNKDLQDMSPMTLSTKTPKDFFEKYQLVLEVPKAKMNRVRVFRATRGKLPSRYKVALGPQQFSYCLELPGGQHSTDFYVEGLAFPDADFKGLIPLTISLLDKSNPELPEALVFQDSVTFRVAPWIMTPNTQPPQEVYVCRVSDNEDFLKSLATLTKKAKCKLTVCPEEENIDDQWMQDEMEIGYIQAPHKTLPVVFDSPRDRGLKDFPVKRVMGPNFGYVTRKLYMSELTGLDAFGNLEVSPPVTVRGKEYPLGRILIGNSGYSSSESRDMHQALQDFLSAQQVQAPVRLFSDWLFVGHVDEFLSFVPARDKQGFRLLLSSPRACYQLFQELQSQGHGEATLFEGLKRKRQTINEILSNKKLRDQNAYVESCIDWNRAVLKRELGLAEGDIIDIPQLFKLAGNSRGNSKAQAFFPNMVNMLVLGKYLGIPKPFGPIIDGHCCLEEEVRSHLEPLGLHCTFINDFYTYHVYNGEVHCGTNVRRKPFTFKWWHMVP

## anti-dinitrophenyl (DNP) antibody (negative control)
[1]
  absorbance 490 nm/630 nm: 0.024 OD
[2]
  absorbance 490 nm/630 nm: 0.023 OD
[3]
  absorbance 490 nm/630 nm: 0.028 OD
[4]
  absorbance 490 nm/630 nm: 0.011 OD
[5]
  absorbance 490 nm/630 nm: 0.021 OD
[6]
  absorbance 490 nm/630 nm: 0.02 OD
[7]
  absorbance 490 nm/630 nm: 0.034 OD
[8]
  absorbance 490 nm/630 nm: 0.018 OD
[9]
  absorbance 490 nm/630 nm: 0.001 OD
[10]
  absorbance 490 nm/630 nm: 0.057 OD
[11]
  absorbance 490 nm/630 nm: 0.052 OD
[12]
  absorbance 490 nm/630 nm: 0.007 OD
[13]
  absorbance 490 nm/630 nm: 0.008 OD
[14]
  absorbance 490 nm/630 nm: 0.008 OD
[15]
  absorbance 490 nm/630 nm: 0.012 OD
[16]
  absorbance 490 nm/630 nm: 0.009 OD
[17]
  absorbance 490 nm/630 nm: 0.011 OD
[18]
  absorbance 490 nm/630 nm: 0.004 OD
[19]
  absorbance 490 nm/630 nm: 0.052 OD
[20]
  absorbance 490 nm/630 nm: 0.01 OD
[21]
  absorbance 490 nm/630 nm: 0.017 OD
[22]
  absorbance 490 nm/630 nm: 0.011 OD
[23]
  absorbance 490 nm/630 nm: 0.052 OD
[24]
  absorbance 490 nm/630 nm: 0.012 OD
[25]
  absorbance 490 nm/630 nm: 0.017 OD
[26]
  absorbance 490 nm/630 nm: 0.011 OD
[27]
  absorbance 490 nm/630 nm: 0.052 OD
[28]
  absorbance 490 nm/630 nm: 0.054 OD
[29]
  absorbance 490 nm/630 nm: 0.01 OD
[30]
  absorbance 490 nm/630 nm: 0.001 OD
[31]
  absorbance 490 nm/630 nm: 0.065 OD
